Sequences and labels used below:
T1: Hypothetical protein FLJ10540 1-140 (human, UniProt Q53EZ4 1-140)
T1 construct: range 1-140; prey (Gal4 AD-HA fusion)
T1 sequence (looked up): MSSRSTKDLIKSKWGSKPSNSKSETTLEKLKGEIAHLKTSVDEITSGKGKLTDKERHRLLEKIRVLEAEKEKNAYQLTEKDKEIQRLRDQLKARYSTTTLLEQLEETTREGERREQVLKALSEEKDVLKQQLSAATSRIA

T2: Hypothetical protein FLJ10540 2-132 (human, UniProt Q53EZ4 2-132)
T2 construct: prey (Gal4 AD-HA fusion)
T2 sequence (looked up): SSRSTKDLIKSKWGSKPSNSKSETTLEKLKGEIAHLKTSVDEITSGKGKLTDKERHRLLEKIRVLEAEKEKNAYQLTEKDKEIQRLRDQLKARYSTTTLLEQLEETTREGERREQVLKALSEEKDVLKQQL

T3: Tumor Suppressor (TSG101) 1-274 (human, UniProt Q99816 1-274)
T3 construct: range 1-274; bait (Gal4 DBD fusion)
T3 sequence (looked up): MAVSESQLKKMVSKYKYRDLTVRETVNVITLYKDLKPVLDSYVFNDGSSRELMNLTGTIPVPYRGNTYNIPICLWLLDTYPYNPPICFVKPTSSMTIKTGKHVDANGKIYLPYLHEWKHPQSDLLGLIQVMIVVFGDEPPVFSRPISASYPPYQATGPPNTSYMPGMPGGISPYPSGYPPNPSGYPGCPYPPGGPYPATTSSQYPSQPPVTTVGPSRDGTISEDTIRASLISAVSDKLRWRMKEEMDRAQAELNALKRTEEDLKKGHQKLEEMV

T4: Tumor Suppressor (TSG101) 50-391 (human, UniProt Q99816 50-390)
T4 construct: range 50-391; bait (Gal4 DBD fusion)
T4 sequence (looked up): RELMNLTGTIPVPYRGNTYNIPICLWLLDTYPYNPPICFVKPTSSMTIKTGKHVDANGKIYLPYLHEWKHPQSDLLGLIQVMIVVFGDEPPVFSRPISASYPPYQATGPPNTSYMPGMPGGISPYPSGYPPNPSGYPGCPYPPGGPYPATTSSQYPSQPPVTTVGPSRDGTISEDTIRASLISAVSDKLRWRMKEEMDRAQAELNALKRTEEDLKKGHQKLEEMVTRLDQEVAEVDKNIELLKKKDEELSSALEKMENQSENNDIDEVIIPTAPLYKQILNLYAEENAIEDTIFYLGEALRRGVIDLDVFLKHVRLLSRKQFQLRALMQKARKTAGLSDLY

T5: Golgi autoantigen (Golgin-84) 198-501 (human, UniProt Q8TBA6 198-501)
T5 construct: prey (Gal4 AD-HA fusion)
T5 sequence (looked up): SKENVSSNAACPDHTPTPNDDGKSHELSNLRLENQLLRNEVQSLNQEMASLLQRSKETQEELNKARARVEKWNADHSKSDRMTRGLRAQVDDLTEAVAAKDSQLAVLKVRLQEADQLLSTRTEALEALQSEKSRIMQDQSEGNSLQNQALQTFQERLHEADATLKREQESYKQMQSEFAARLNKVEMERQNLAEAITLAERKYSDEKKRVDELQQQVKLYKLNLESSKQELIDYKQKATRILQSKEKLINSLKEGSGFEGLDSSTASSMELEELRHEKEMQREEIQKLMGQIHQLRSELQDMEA

T6: v-akt murine thymoma viral oncogene homolog 2 (AKT2) 1-152 (human, UniProt P31751 1-152)
T6 construct: bait (Gal4 DBD fusion)
T6 sequence (looked up): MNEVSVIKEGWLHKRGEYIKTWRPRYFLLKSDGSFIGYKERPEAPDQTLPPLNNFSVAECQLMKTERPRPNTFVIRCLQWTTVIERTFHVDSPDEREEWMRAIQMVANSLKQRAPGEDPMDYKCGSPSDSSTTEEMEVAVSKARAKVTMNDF

B1: VPS28 protein 27-221 (other, human, UniProt Q9UK41 27-221, looked up)
chain: YKNAREREKYDNMAELFAVVKTMQALEKAYIKDCVSPSEYTAACSRLLVQYKAAFRQVQGSEISSIDEFCRKFRLDCPLAMERIKEDRPITIKDDKGNLNRCIADVVSLFITVMDKLRLEIRAMDEIQPDLRELMETMHRMSHLPPDFEGRQTVSQWLQTLSGMSASDELDDSQVRQMLFDLESAYNAFNRFLHA
notes: prey (Gal4 AD-HA fusion); also called vacuolar protein sorting 28
B2: Survivin (BIRC5) 89-143 (other, human, UniProt O15392 89-142, looked up)
chain: VKKQFEELTLGEFLKLDRERAKNKIAKETNNKKKEFEETAKKVRRAIEQLAAMD
notes: range 89-143; bait (Gal4 DBD fusion); also called API4
B3: Survivin (BIRC5) 3-99 (other, human, UniProt O15392 3-99, looked up)
chain: APTLPPAWQPFLKDHRISTFKNWPFLEGCACTPERMAEAGFIHCPTENEPDLAQCFFCFKELEGWEPDDDPIEEHKKHSSGCAFLSVKKQFEELTLG
notes: range 3-99; bait (Gal4 DBD fusion); also called API4
B4: Tumor Suppressor (TSG101) 140-270 (other, human, UniProt Q99816 140-270, looked up)
chain: PVFSRPISASYPPYQATGPPNTSYMPGMPGGISPYPSGYPPNPSGYPGCPYPPGGPYPATTSSQYPSQPPVTTVGPSRDGTISEDTIRASLISAVSDKLRWRMKEEMDRAQAELNALKRTEEDLKKGHQKL
notes: range 140-270; bait (Gal4 DBD fusion)
B5: Actinin (ACTN1) 719-892 (other, human, UniProt P12814 719-892, looked up)
chain: QLLTTIARTINEVENQILTRDAKGISQEQMNEFRASFNHFDRDHSGTLGPEEFKACLISLGYDIGNDPQGEAEFARIMSIVDPNRLGVVTFQAFIDFMSRETADTDTADQVMASFKILAGDKNYITMDELRRELPPDQAEYCIARMAPYTGPDSVPGALDYMSFSTALYGESDL
notes: prey (Gal4 AD-HA fusion)
B6: VPS28 protein 10-221 (other, human, UniProt Q9UK41 10-221, looked up)
chain: GIGAPGNKPELYEEVKLYKNAREREKYDNMAELFAVVKTMQALEKAYIKDCVSPSEYTAACSRLLVQYKAAFRQVQGSEISSIDEFCRKFRLDCPLAMERIKEDRPITIKDDKGNLNRCIADVVSLFITVMDKLRLEIRAMDEIQPDLRELMETMHRMSHLPPDFEGRQTVSQWLQTLSGMSASDELDDSQVRQMLFDLESAYNAFNRFLHA
notes: as for B1
B7: farnesyltransferase, CAAX box, alpha (FNTA) 189-328 (enzyme)
chain: not shown
notes: prey (Gal4 AD-HA fusion)
B8: Hypothetical protein FLJ10540 1-74 (other, human, UniProt Q53EZ4 1-74, looked up)
chain: MSSRSTKDLIKSKWGSKPSNSKSETTLEKLKGEIAHLKTSVDEITSGKGKLTDKERHRLLEKIRVLEAEKEKNA
notes: range 1-74; prey (Gal4 AD-HA fusion)
B9: Hypothetical protein FLJ10540 1-120 (other, human, UniProt Q53EZ4 1-120, looked up)
chain: MSSRSTKDLIKSKWGSKPSNSKSETTLEKLKGEIAHLKTSVDEITSGKGKLTDKERHRLLEKIRVLEAEKEKNAYQLTEKDKEIQRLRDQLKARYSTTTLLEQLEETTREGERREQVLKA
notes: range 1-120; prey (Gal4 AD-HA fusion)
B10: Hypothetical protein FLJ10540 1-117 (other, human, UniProt Q53EZ4 1-117, looked up)
chain: MSSRSTKDLIKSKWGSKPSNSKSETTLEKLKGEIAHLKTSVDEITSGKGKLTDKERHRLLEKIRVLEAEKEKNAYQLTEKDKEIQRLRDQLKARYSTTTLLEQLEETTREGERREQV
notes: prey (Gal4 AD-HA fusion)
B11: Tumor Suppressor (TSG101) 147-391 (other, human, UniProt Q99816 147-390, looked up)
chain: SASYPPYQATGPPNTSYMPGMPGGISPYPSGYPPNPSGYPGCPYPPGGPYPATTSSQYPSQPPVTTVGPSRDGTISEDTIRASLISAVSDKLRWRMKEEMDRAQAELNALKRTEEDLKKGHQKLEEMVTRLDQEVAEVDKNIELLKKKDEELSSALEKMENQSENNDIDEVIIPTAPLYKQILNLYAEENAIEDTIFYLGEALRRGVIDLDVFLKHVRLLSRKQFQLRALMQKARKTAGLSDLY
notes: bait (Gal4 DBD fusion)
B12: Hypothetical protein FLJ10540 1-231 (other, human, UniProt Q53EZ4 1-231, looked up)
chain: MSSRSTKDLIKSKWGSKPSNSKSETTLEKLKGEIAHLKTSVDEITSGKGKLTDKERHRLLEKIRVLEAEKEKNAYQLTEKDKEIQRLRDQLKARYSTTTLLEQLEETTREGERREQVLKALSEEKDVLKQQLSAATSRIAELESKTNTLRLSQTVAPNCFNSSINNIHEMEIQLKDALEKNQQWLVYDQQREVYVKGLLAKIFELEKKTETAAHSLPQQTKKPESEGYLQE
notes: prey (Gal4 AD-HA fusion)
B13: Hypothetical protein FLJ10540 1-110 (other, human, UniProt Q53EZ4 1-110, looked up)
chain: MSSRSTKDLIKSKWGSKPSNSKSETTLEKLKGEIAHLKTSVDEITSGKGKLTDKERHRLLEKIRVLEAEKEKNAYQLTEKDKEIQRLRDQLKARYSTTTLLEQLEETTRE
notes: range 1-110; prey (Gal4 AD-HA fusion)
B14: Hypothetical protein FLJ10540 115-231 (other, human, UniProt Q53EZ4 115-231, looked up)
chain: EQVLKALSEEKDVLKQQLSAATSRIAELESKTNTLRLSQTVAPNCFNSSINNIHEMEIQLKDALEKNQQWLVYDQQREVYVKGLLAKIFELEKKTETAAHSLPQQTKKPESEGYLQE
notes: prey (Gal4 AD-HA fusion)
B15: Hypothetical protein FLJ10540 1-115 (other, human, UniProt Q53EZ4 1-115, looked up)
chain: MSSRSTKDLIKSKWGSKPSNSKSETTLEKLKGEIAHLKTSVDEITSGKGKLTDKERHRLLEKIRVLEAEKEKNAYQLTEKDKEIQRLRDQLKARYSTTTLLEQLEETTREGERRE
notes: prey (Gal4 AD-HA fusion)
B16: tetratricopeptide repeat domain 3 (TPRD) 1058-1189 (other, human, UniProt P53804 1058-1189, looked up)
chain: NRNSDSAGPFAVPDHLRQDVEEFEALYDQHSNEYVVRNKKLWDMNPKQKCSTLYDYFSQFLEEHGPLDMSNKMFSAEYEFFPEETRQILEKAGGLKPFLLGCPRFVVIDNCIALKKVASRLKKKRKKKNIKT
notes: prey (Gal4 AD-HA fusion)

Experiment in all cases: yeast two-hybrid
In test [1] the target is B11.
The target of test [2] is T7, Cytoplasmic dynein light chain 1 (HDLC1) 1-90 (human, UniProt P63167 1-89).
T7 construct: range 1-90; prey (Gal4 AD-HA fusion)
T7 sequence (P63167 whole entry, the tested form may be a part): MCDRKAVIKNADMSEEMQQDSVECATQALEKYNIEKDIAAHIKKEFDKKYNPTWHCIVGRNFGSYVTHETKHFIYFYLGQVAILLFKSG

The target in test [3] is T8, DNA helicase II, ATP-dependent, 70 kD subunit (KU70) 131-403 (table prints 1131-4404) (human, UniProt P12956 131-403).
T8 construct: prey (Gal4 AD-HA fusion)
T8 sequence (P12956 131-403 limits assumed): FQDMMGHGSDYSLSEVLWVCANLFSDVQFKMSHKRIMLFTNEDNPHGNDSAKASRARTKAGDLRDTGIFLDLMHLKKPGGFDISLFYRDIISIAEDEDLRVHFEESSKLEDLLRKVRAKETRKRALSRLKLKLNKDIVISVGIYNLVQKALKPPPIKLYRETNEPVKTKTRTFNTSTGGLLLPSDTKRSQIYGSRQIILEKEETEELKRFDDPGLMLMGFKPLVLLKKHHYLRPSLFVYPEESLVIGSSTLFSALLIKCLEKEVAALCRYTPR

Test [4] concerns the target T1, Hypothetical protein FLJ10540 1-140.
Test [5] concerns the target T2, Hypothetical protein FLJ10540 2-132.
Test [6] has as its target T3, Tumor Suppressor (TSG101) 1-274.
For test [7], the target named is T9, v-akt murine thymoma viral oncogene homolog 1 (AKT1) 1-150 (human, UniProt P31749 1-150).
T9 construct: range 1-150; bait (Gal4 DBD fusion)
T9 sequence (P31749 1-150 limits assumed): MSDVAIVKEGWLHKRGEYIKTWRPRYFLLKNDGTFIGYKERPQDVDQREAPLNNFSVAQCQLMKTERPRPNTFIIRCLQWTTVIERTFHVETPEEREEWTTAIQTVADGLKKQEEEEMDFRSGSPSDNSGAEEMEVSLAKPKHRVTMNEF

In test [8] the target is B4.
Test [9] addresses T4, Tumor Suppressor (TSG101) 50-391.
Test [10] has as its target T5, Golgi autoantigen (Golgin-84) 198-501.
In test [11] the target is T6, v-akt murine thymoma viral oncogene ….

Consider B1, for which, in test [1], the binding result is listed as “binds”.

Turning to B2, the binding result in [2] is listed as “binds”.

With B3, the binding result in test [3] is “binds”.

Regarding B4, the binding result in [4] and in [5] was “binds” in each case.

Turning to B5, the binding result in [6] is reported as “binds”.

Consider B6, for which the binding result in [1] is “binds”.

B7: the binding result in test [7] is “binds”.

In the case of B8, the binding result in [8] is given as “binds”.

In the case of B9, in test [8], the binding result is “binds”.

Take B10: the binding result in [9] is “binds”.

As to B11, the binding result in test [10] is “binds”.

As to B12, the binding result in test [9] is given as “binds”.

On to B13, for which the binding result in test [9] is “binds”.

B14: in test [9], the binding result is “binds”.

With B15, the binding result in test [8] was “binds”.

As for B16, the binding result in [11] and in [7] was “binds” each time.

Source of the values: patent publication US20050222029A1 (MYRIAD GENETICS, published 2005).
